Source: article PMC3921932

Target: recombinant manganese superoxide dismutase (MnSOD) from Lactococcus lactis M4 (Lactococcus lactis M4) (UniProt P0A4J2)
Assay: SEC; Superose 12 HR 16/70 packed column, 20 mM phosphate buffer, 0.15 M NaCl, pH 7.0, 0.75 mL/min; calibrated with aprotinin, cytochrome c, carbonic anhydrase and BSA; estimated mass 63 kDa against 55.4 kDa theoretical for a dimer

recombinant manganese superoxide dismutase (MnSOD) from Lactococcus lactis M4 (from UniProt P0A4J2 1-206) (enzyme)
stoichiometry N: 2
